In publication PMC7141136, “Ohr and OhrR Are Critical for Organic Peroxide Resistance and Symbiosis in Azorhizobium caulinodans ORS571”:
Each block holds one molecule with its values, some of them ahead of it.

Experiments:
[1] = molecular target: OhrR (AZC_3555) of Azorhizobium caulinodans ORS571, 6×His-tagged recombinant protein (Azorhizobium caulinodans ORS571); assay: non-reducing SDS-PAGE; purified OhrR oxidised with 0.1 mM CuOOH for 10 min, then non-reducing SDS-PAGE; covalent dimer
[2] = molecular target: OhrR^C121S (Azorhizobium caulinodans ORS571); assay: as above
OhrR = molecular target: T1, OhrR (Azorhizobium caulinodans ORS571, UniProt A8IEZ4 1-144); assay: EMSA; reduced (2.5 mM DTT in buffer); dose-dependent; 50 mM Tris-HCl pH 8.3, 0.25 M KCl, 2.5 mM DTT, 5 mM MgCl2, 0.05 ug/mL poly(dI-dC), 2.5 mM EDTA, 1% glycerol; 20 nM DNA, 20 uL, 20 min, room temperature; 6% native PAGE in 0.5x TBE; details: protein: recombinant; tags: N-terminal 6xHis (pET-28a); chain copies: 2; label: none (GelRed stain)
T1 sequence: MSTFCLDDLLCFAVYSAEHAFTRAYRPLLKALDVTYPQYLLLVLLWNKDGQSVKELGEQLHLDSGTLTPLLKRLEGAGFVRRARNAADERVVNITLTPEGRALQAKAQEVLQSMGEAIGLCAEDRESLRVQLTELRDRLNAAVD

stoichiometry N [1]: 2
Molecule: OhrR (AZC_3555) of Azorhizobium caulinodans ORS571, 6×His-tagged recombinant protein (natural protein)

stoichiometry N [2]: 2
Molecule: OhrR^C121S (natural protein)

B1: ohr promoter probe (181 bp) (dsDNA)
DNA 1: CAAAGGGTTAGTTTTCCGTTGCGGAAGGTTGGGTGATGTTGACGGTGGTCTGCAAAATAAGTTTGACACAATCAAATTGTGTGCTACTTAAATGGCCATGGAAGCGGCTTGGCCGTTTCTCATCGATTTCTCAAGGCACGAGGATCAAGCGATGTCCGTCGATGTGAAGTACACCACCAAG
DNA 2: CTTGGTGGTGTACTTCACATCGACGGACATCGCTTGATCCTCGTGCCTTGAGAAATCGATGAGAAACGGCCAAGCCGCTTCCATGGCCATTTAAGTAGCACACAATTTGATTGTGTCAAACTTATTTTGCAGACCACCGTCAACATCACCCAACCTTCCGCAACGGAAAACTAACCCTTTG
binding result (OhrR): binds
